This is an account of results in patent publication US20220089776A1 (OREGON HEALTH AND SCIENCE UNIVERSITY, published 2022).

Assay [1] deals with T1, human blood protein factor XII (FXII) (human, UniProt P00748 20-615).
T1 sequence (looked up): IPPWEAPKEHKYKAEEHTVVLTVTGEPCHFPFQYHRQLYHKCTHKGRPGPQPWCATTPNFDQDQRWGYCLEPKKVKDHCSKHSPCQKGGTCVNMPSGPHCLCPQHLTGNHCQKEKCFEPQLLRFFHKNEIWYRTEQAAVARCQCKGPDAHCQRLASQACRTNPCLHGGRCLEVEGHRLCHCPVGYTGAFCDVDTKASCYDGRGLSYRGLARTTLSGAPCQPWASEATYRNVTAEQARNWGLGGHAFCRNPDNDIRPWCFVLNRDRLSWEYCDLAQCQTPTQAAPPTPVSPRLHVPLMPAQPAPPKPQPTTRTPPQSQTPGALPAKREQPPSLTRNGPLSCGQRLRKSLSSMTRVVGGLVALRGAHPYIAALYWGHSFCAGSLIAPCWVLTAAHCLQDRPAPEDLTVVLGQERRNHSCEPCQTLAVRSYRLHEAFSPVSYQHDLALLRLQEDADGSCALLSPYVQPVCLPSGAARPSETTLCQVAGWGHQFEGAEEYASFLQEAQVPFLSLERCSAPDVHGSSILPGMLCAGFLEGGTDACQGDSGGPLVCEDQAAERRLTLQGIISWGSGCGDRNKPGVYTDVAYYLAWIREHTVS
In words: cell-based or functional assay.

Assay [2] deals with T1, human blood protein factor XII (FXII). Briefly: cell-based or functional assay. The source holds these as a separate data set.
Assay [3] has as its target T2, human activated FXII (FXIIa) (human, UniProt P00748 20-615, limits assumed).
T2 sequence (looked up): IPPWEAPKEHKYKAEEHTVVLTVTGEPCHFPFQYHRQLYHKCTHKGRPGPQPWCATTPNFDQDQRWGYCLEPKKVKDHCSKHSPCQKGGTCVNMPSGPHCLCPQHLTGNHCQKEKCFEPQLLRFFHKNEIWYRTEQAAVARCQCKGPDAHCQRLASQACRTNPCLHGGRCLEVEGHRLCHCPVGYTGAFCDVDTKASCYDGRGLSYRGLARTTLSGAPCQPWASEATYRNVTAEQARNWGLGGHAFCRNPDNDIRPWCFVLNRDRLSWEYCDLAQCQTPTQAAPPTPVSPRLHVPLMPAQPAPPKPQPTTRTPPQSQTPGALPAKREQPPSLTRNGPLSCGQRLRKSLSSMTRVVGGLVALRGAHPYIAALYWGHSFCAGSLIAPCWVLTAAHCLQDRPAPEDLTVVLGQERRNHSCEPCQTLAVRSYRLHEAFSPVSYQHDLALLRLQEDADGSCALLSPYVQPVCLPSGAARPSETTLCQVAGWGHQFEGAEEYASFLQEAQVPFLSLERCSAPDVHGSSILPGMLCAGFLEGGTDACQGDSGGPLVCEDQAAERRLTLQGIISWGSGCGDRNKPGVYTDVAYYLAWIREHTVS
In words: cell-based or functional assay.

A further assay addresses T3, mouse FXII (mouse, UniProt Q80YC5 20-597).
T3 construct: mature; Plasma protein; Tested only in the aPTT assay
T3 sequence (looked up): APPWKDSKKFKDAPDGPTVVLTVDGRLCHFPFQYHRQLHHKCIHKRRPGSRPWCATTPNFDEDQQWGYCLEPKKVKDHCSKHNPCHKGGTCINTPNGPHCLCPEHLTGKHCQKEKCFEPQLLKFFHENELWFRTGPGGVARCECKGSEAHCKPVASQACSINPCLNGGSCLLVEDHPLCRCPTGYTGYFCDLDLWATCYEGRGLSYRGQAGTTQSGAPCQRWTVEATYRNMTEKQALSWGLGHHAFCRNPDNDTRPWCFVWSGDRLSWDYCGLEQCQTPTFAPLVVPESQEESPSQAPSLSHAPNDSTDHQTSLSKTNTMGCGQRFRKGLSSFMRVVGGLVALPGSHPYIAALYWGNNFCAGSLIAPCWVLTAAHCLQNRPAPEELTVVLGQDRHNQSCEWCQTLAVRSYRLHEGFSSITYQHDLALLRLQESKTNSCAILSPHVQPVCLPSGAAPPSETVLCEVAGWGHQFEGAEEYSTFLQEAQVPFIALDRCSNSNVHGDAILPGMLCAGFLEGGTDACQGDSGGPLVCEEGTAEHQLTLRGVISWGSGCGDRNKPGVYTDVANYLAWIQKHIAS
Briefly: Western blot of recombinant mouse FXII, non-reduced and reduced SDS-PAGE; primary antibody murine 5C12. From the text:
FIG. 3A-3C: Species specificity of 5C12. (FIG. 3A) Western blots of platelet poor plasmas from different species (indicated above each lane) size fractionated by SDS-PAGE […]. Species included in alphabetical order: African green monkey, baboon, beagle, cat, cattle, chicken, cynomolgus monkey, dog, elephant, giant anteater, horse, human, human deficient in FXII, llama, marmoset, pig, rabbit, raccoon, rat, red kangaroo, rhesus macaque and tiger. Human plasma and human deficient in FXII plasma were used in all gels as a positive and negative control, respectively. […] 5C12 also recognizes both the alpha (comprising both the light and heavy chain of FXII) and the beta (comprising only the light chain and a nonapeptide fragment of the heavy chain) form of activated FXII (FXIIa) (FIG. 3C). The primary antibody for all Western blots was murine 5C12, the secondary antibody was goat-anti-mouse polyclonal.
A general note: In western blotting, separated proteins are transferred to a membrane and probed.

In another assay the target is T4, rat FXII (rat, UniProt D3ZTE0 20-595).
T4 construct: mature; Plasma protein
T4 sequence (looked up): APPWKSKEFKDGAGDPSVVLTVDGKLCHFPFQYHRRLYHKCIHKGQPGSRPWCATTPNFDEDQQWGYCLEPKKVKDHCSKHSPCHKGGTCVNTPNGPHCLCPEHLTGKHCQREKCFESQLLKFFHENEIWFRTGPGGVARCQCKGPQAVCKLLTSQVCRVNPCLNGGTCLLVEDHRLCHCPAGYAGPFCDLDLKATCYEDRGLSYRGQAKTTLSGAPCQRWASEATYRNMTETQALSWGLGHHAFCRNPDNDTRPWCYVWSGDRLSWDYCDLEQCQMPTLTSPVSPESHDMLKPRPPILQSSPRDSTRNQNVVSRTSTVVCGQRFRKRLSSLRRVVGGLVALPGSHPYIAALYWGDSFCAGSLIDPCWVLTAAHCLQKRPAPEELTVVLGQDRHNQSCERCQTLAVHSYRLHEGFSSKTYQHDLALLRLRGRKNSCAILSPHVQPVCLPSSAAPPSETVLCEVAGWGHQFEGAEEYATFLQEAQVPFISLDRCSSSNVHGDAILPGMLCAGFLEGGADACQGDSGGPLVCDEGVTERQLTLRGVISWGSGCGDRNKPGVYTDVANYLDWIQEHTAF
Briefly: Western blot of platelet-poor plasma, non-reduced SDS-PAGE.

The target of assay [4] is T1, human blood protein factor XII (FXII). In words: cell-based or functional assay. This is another data set of the same source.

B1: mouse monoclonal antibody 5C12 (antibody, mouse IgG1, kappa, V domains shown)
VH: DVQLQESGPDLVKPSQSLSLTCTVTGYSITSGYSWHWIRQFPGNNLEWMGYIQYSGNTNSNPSLKSRISITRDTSKNQFFLHLNSVTTEDTATYYCARWGSFDYWGQGTTLTVSS
VL: QIVLTQSPAIMSASPGEKVTMTCSASSSVNYMHWYQQKSGTSPKRWIYDTSKLASGVPARFSGSGSGTSYSLTISSMEAGDAATYYCQQWSGNPPTFGGGTILEIKR
notes: Purified from hybridoma; also called AB053; 5C12 MAb
As for B1, in assay [1], the “IC50 (read off the curve): FXIIa amidolytic activity after activation of 50 nM FXII with long polyphosphates, PK and HK” value is around 10 nM. The “IC50 (read off the curve): FXIIa amidolytic activity after activation of 50 nM FXII with short polyphosphates, PK and HK” value in assay [2] was around 10 nM. The “IC50 (read off the curve): amidolytic activity of 20 nM FXIIa” value in assay [3] was around 7 nM. Moreover, the binding result with mouse FXII and with rat FXII was “no binding” throughout. For the same molecule, in assay [4], the “IC50 (read off the curve): FXIIa amidolytic activity after activation of 40 nM FXII with 1 µg/ml dextran sulfate” value is around 6 nM.
